System: carbamoylphosphate synthetase (CPSase)
Assay: CPSase activity in reaction of carbamoylphosphate (CP) synthesis from glutamine or ammonia, protein extracts, CP by capillary zone electrophoresis
Assay type: biochemical, E. coli
Protocol: Then, the protein extracts from these 9 clones B-6969(pEL-carAB-NN) and one clone B-6969(pEL-carAB-6) were used to evaluate the activity and fbr of mutant CPSases in reaction of carbamoylphosphate (CP) synthesis from glutamine or ammonia.
The crude cellular extracts from cells were prepared by sonication of 20 mg wet cells pellet suspended in 0.5 ml of buffer A (200 mM K2HPO4/KH2PO4, pH 8.0, 1 mM EDTA, 1 mM PMSF, 1 mM DTT) and treated with solid ammonium sulfate to achieve 65% of saturation. After incubation for 10 min at 4° C., the suspensions were centrifuged at 13,000 rpm for 10 min and the precipitates were dissolved in 1 ml of buffer B (20 mM K2HPO4/KH2PO4, pH 8.0, 50 mM KCl, 1 mM PMSF, 1 mM DTT). The aliquots of obtained protein extracts were used to evaluate the CPSase activity. The schemes of reaction were following: Gln+CO2+2MgATP+H2O→NH2COOPO3^2−+2MgADP+Glu+P1 I. NH3+CO2+[…]+H2O→NH2COOPO3^2−+2MgADP+P1 II.
The 50 μl of each reaction mixture included:
reaction I—20 mM tris-HCl, pH 8.0, 100 mM KCl, 5 mM Na2CO3, 10 mM ATP, 10 mM MgCl2, 5 mM glutamine, 10 μl of protein extract;
reaction II—20 mM tris-HCl, pH 8.0, 100 mM KCl, 5 mM Na2CO3, 10 mM ATP, 10 mM MgCl2, 200mM (NH4)2SO4, 10 μl of protein extract. […]
After incubation for 10 min at 37° C. reactions were stopped by addition of equal volume of EtOH, cooled at −20° C. for 10 min and centrifuged at 13,000 rpm for 1 min at room temperature. Supernatants were cooled at −20° C.
The CP content in reaction mixtures was analyzed by capillary zone electrophoresis. The separation was performed on a Quanta 4000E Capillary Electrophoresis System (“Waters”, USA) with UV indirect detection at 254 nm. The injection was performed by hydrostatic for 25 s. The separation was carried out with an uncoated fused-silica capillary (75 u I.D.* 60cm, effective length 53 cm) and was operated at −25 kV potential. Temperature was maintained at 20° C. The separation buffer consisted of 50 mM Tris base, 25mM benzoic acid (for indirect detection), pH 8.5, 0.25mM TTAB (tetradecyl-trimethyl-ammonium bromide) (for reversion of electroosmotic flow).

B1: clone Wt: wild type E. coli CPSase; CarB 947-951 -Leu-Ser-Val-Arg-Glu- (SEQ ID NO: 28) (protein, UniProt P0A6F1 1-382; P00968 2-1073, looked up)
Carbamoyl phosphate synthase … 1: MIKSALLVLEDGTQFHGRAIGATGSAVGEVVFNTSMTGYQEILTDPSYSRQIVTLTYPHIGNVGTNDADEESSQVHAQGLVIRDLPLIASNFRNTEDLSSYLKRHNIVAIADIDTRKLTRLLREKGAQNGCIIAGDNPDAALALEKARAFPGLNGMDLAKEVTTAEAYSWTQGSWTLTGGLPEAKKEDELPFHVVAYDFGAKRNILRMLVDRGCRLTIVPAQTSAEDVLKMNPDGIFLSNGPGDPAPCDYAITAIQKFLETDIPVFGICLGHQLLALASGAKTVKMKFGHHGGNHPVKDVEKNVVMITAQNHGFAVDEATLPANLRVTHKSLFDGTLQGIHRTDKPAFSFQGHPEASPGPHDAAPLFDHFIELIEQYRKTAK
Carbamoyl phosphate synthase … 2: PKRTDIKSILILGAGPIVIGQACEFDYSGAQACKALREEGYRVILVNSNPATIMTDPEMADATYIEPIHWEVVRKIIEKERPDAVLPTMGGQTALNCALELERQGVLEEFGVTMIGATADAIDKAEDRRRFDVAMKKIGLETARSGIAHTMEEALAVAADVGFPCIIRPSFTMGGSGGGIAYNREEFEEICARGLDLSPTKELLIDESLIGWKEYEMEVVRDKNDNCIIVCSIENFDAMGIHTGDSITVAPAQTLTDKEYQIMRNASMAVLREIGVETGGSNVQFAVNPKNGRLIVIEMNPRVSRSSALASKATGFPIAKVAAKLAVGYTLDELMNDITGGRTPASFEPSIDYVVTKIPRFNFEKFAGANDRLTTQMKSVGEVMAIGRTQQESLQKALRGLEVGATGFDPKVSLDDPEALTKIRRELKDAGADRIWYIADAFRAGLSVDGVFNLTNIDRWFLVQIEELVRLEEKVAEVGITGLNADFLRQLKRKGFADARLAKLAGVREAEIRKLRDQYDLHPVYKRVDTCAAEFATDTAYMYSTYEEECEANPSTDREKIMVLGGGPNRIGQGIEFDYCCVHASLALREDGYETIMVNCNPETVSTDYDTSDRLYFEPVTLEDVLEIVRIEKPKGVIVQYGGQTPLKLARALEAAGVPVIGTSPDAIDRAEDRERFQHAVERLKLKQPANATVTAIEMAVEKAKEIGYPLVVRPSYVLGGRAMEIVYDEADLRRYFQTAVSVSNDAPVLLDHFLDDAVEVDVDAICDGEMVLIGGIMEHIEQAGVHSGDSACSLPAYTLSQEIQDVMRQQVQKLAFELQVRGLMNVQFAVKNNEVYLIEVNPRAARTVPFVSKATGVPLAKVAARVMAGKSLAEQGVTKEVIPPYYSVKEVVLPFNKFPGVDPLLGPEMRSTGEVMGVGRTFAEAFAKAQLGSNSTMKKHGRALLSVREGDKERVVDLAAKLLKQGFELDATHGTAIVLGEAGINPRLVNKVHEGRPHIQDRIKNGEYTYIINTTSGRRAIEDSRVIRRSALQYKVHYDTTLNGGFATAMALNADATEKVISVQEMHAQIK
Activity, (CP) (Substrate: 5 mM Gln): 1350 nmol/mg/min | Activity, (CP) (Substrate: 5 mM Gln, Allosteric effector: 10 mM UMP): 170 nmol/mg/min | Activity, (CP) (Substrate: 200 mM (NH4)2SO4): 425 nmol/mg/min
